Laboratory results: patent US20240324599A1, “PESTICIDAL ENZYMES FOR USE ON NEMATODES, INSECTS, AND MOLLUSKS” (priority 2023, published 2024)

Legend:
[1] = system: Btk resistant Diamondback moth; assay: Diet-surface overlay (DSO) bioassay; assay type: in vivo; conditions: Table 47, Btk resistant
Summary of the method: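 Enzyme treatments (0.1 mL) were applied over the surface of antibiotic-free artificial diet, with one first-instar larva per cell and 16 or 32 larvae per treatment. After 7 days at 27° C under a 16:8 light-dark cycle, larvae were scored as dead, larval stage, pupa or adult. Water served as the negative control and 1000 ppm Btk spores as the positive control.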

[2] = system: SCN nematodes; assay: Foliar spray on strawberry leaf segments: nematode death; assay type: in vivo, Heterodera glycines; conditions: Table 40, 0.6% spray solution on strawberry leaf segments
Experimental: To determine whether a nematicidal enzyme can cause nematode death when sprayed as a foliar treatment, a trial was performed using chitinase 19F (SEQ ID NO: 182). The free enzyme was produced as described in Example 2. A SCN hatchery was set up as described in Example 2, except that no bleach sterilization step was performed. Six days later, the concentration of hatched nematodes was determined. Leaves from Quinault strawberry plants (Fragaria× ananassa) were cut into square sections and placed in the wells of a 24-well plate with the abaxial side up. Twenty-four wells were set up for each treatment. Spray solutions were created with water alone and water plus fermentation broth with chitinase 19F (SEQ ID NO: 182). For the base strain control and chitinase solutions, 0.094 mL of fermentation broth was added to 15 mL of water (0.6% solution) to model a field spray application of 8 fl oz. per acre. Treatments were added to a small spray bottle and each leaf segment was sprayed approximately 3 times. After the leaves had dried, approximately 100 nematodes were added to each leaf segment. […] The number of alive and dead nematodes were counted for each well, and the average percentage of dead nematodes were calculated for each treatment. […]

[3] = system: Steinernema feltiae; assay: In-vitro plate assay: Steinernema feltiae juvenile death after direct treatment; assay type: in vivo; conditions: 40 μL per well (ILEVO 20 μL)
Experimental: To determine the effects of enzymes on an additional soil-dwelling nematode species (Steinernema feltiae), a NemAttack™ package containing approximately 5 million S. feltiae juveniles was purchased from ARBICO Organics. The nematodes arrived already hatched and dispersed within a powder. To prepare the nematodes for use, an aliquot of the dry nematode mixture was rehydrated in water. The liquid nematode mixture was adjusted to a concentration of 20-30 nematode juveniles per 10 μL. The free enzymes Esterase B (SEQ ID NO: 89) and Chitinase 19F (SEQ ID NO: 182) were produced as described in Example 2.
Potato dextrose agar media containing chloramphenicol and chlortetracycline was prepared and added to sterile twenty-four-well cell culture plates (1 mL per well). The plates were divided according to the pre-determined N-value for each treatment (N=12-24). […]
To quantify the treatments' effects on nematode viability, the nematodes were examined under a dissecting microscope at 20× magnification. Initial (T0) values for the number of live juveniles, number of dead juveniles and total number of juveniles were recorded immediately after preparation of each well. […] Approximately 20-22 hours post addition of juveniles, the plates were evaluated, and the number of live juveniles, dead juveniles and total number of juveniles were recorded. […]

[4] = system: Diamondback moth (Plutella xylostella); assay: Diet-surface overlay (DSO) bioassay; assay type: in vivo
Experimental: Diet-surface overlay bioassays are conducted with artificial diet mixes without antibiotics in 1.5 cm^2 cell bioassay trays(s). Artificial diets are commercially available from Southland Products Inc. Diets were prepared by dispersing 0.5 mL of molten diet to each 1.5 cm^2 cell. After solidification, 0.1 mL enzyme treatments were dispersed on top of diet in each cell and the tray was gently rocked in an orbital shaker to spread the liquid uniformly over the diet surface. Trays were placed under clean airflow until the surface of each cell was uniformly dried. One or two 16-cell sections were used per treatment (the number in larvae treated was 16 or 32).
One healthy first instar larva was placed into each treatment cell, each 16-cell section was covered with a re-sealable lid and incubated at 27° C. and light-dark period of 16:8 hrs. After 7 days, and according to the species, the number of individuals in the following developmental categories was recorded.
Diamondback moth (Plutella xylostella): Dead Larva (lack of movement), Larva Stage I (≤50% relative size), Larva Stage II (100% relative size, full size), Early Pupa (light green color), Late Pupa (light-dark brown color), and Adult.
Negative/untreated controls were treated with filtered water and positive controls were treated with lethal doses of Bacillus thuringiensis subsp. Kurstaki (Btk) spores at 1000 ppm.

[5] = Table 49, esterases, number of individuals, n = 32

B1: Streptomyces coelicolor Chitinase F (Chi19F) (protein)
chain: ASCSSYHAWSADANYNTGDIVRYTDGKAYIAEHANPGYDPLISTWYWDPYACDGGSQTPVGNFVVSEAQFNQMFPGRNSFYTYSGLTAALSAYPGFANTGSDTTKKQEAAAFLANVSHETGGLVYIVEQNTANYPHYCDWNQPYGCPAGQAAYYGRGPIQLSWNFNYKAAGDALGIDLLGNPWLVQNDAAVAWKTGLWYWNTQSGPGTMTPHNAMVNGAGFGQTIRSINGSLECDGKNPAQVQSRVTKYQQFAQILGVSPGGNLYC
modifications: Chitinase F (Chi19F); Streptomyces coelicolor
Dead Larva ([1]; individuals of n = 32 after 7 days, mU/mL diet: SEQ 182 3.7, SEQ 185 0.6, water 1): 2 | Early Pupa ([1]; n = 32, doses as E97, water 0): 4 | Larva Stage I ([1]; n = 32, doses as E97, water 0): 2 | Larva Stage II ([1]; n = 32, doses as E97, water 0): 1 | Adult ([1]; n = 32, doses as E97, water 7): 1 | Late Pupa ([1]; n = 32, doses as E97, water 24): 22 | Average percentage of dead nematodes at 0 hours ([2]; water only 4%): 3% | Average percentage of dead nematodes at 24 hours ([2]; water only 5%): 12% | Difference in Percent Death of Nematodes for 0 to 22 Hours ([3]; Table 24, water control 7%): 17%

B2: Bacillus subtilis Esterase (EstB without signal sequence) (protein, listed as Bacillus subtilis)
chain: ESVHNPVVLVHGISGASYNFFAIKNYLISQGWQSNKLYAIDFYDKTGNNLNNGPQLASYVDRVLKETGAKKVDIVAHSMGGANTLYYIKYLGGGNKIQNVVTLGGANGLVSSTALPGTDPNQKILYTSIYSLNDQIVINSLSRLQGARNIQLYGIGHIGLLSNSQVNGYIKEGLNGGGLNTN
modifications: Esterase (EstB H191 without signal sequence)
Adult [4, 5]: 0 | Early Pupa [4, 5]: 4 | Larva Stage I [4, 5]: 3 | Larva Stage II [4, 5]: 8 | Late Pupa [4, 5]: 17 | Dead Larva ([4]; Table 49, esterases, number of individuals, n = 32, dose per treatment in U/mL Diet): 0 | individuals at larva stage ([4]; text to Table 49): 34% | individuals with delayed larva-pupa development ([4]; text to Table 49): 47% | Difference in Percent Death of Nematodes for 0 to 20 Hours ([3]; Table 23, water control 3%): 33%
